This data set is described as follows: soluble on expression in E. coli; label from the status in PepcDB or PDB records.
In the case of “MSIVTVQLGQCGNQIGFEVFDALFRDSHCSQGLCSKRDNEAYQASCRERFFREEENGVPVARAVLVDMEPKVINQTLSKAAQSGRWNYGQHTSFCQKQGSGNNWAYGYSVHGPKHEESIMNLIQTEVEKCDSLSGFFIIMSMAGGTGSGLGAFVTQKLQDQYSSSLKMNQIIWPYGTGEVIVQNYNSILTLSHLYRSSDALLIHENDAVHKICAKRMNIKQISFRDLNQVLAHQLGSVFQPTYSEDSSFHYRRNPLGDLMEHLVPHPEFKMLGVRNIPQMSAASLAYSAFTWAGLLKHLRQMLISSAKMEEGINWQVRPPLTGLPPIGKASAHKEHHFNTSLANLVVLRGREVHSADVEGFKDPALYTSWLEPVDAFSVWKTQRAFDKYEKSAALVSNSQLLVKPLDMIVGKAWNMFSSKAFIHQYTKFGMEEEDFLDSFALLEQVVASYGSLGP”, the “soluble on expression in E. coli” value was “not soluble”. Regarding “MSKALASDEKDDWITHLKAISNVFTQVCTLSASEESAKKLAIKEREECLQELVELRAIAEAHDDVIQQFHLLLAANHQGDATSRQIFNDMKQEVGDNMERIQEHRLVEAKLNVEKRRNERMAKHINEVSKKSVMHLMATRFYARELAAMRQMMDLVRNAATIESAVKSKLWDEIEKENRLLRLNTLWLINRINSSDLGDAAFENGDDWQSSPRLVILMREHINQGLGLEITGGCDQFRPVVVTGKLKRSMADDDQLRVNDRILAIDGTFVTNTTTHAEVMEMLENESAKDFISLIVSQFDPTKYHEAHPNGKCHKFVSTPISGKADSGEDV”, the “soluble on expression in E. coli” value was “not soluble”. To “MSKFWSPFVKDLVPYVPGEQPKLSRLVKLNTNENPYGPSPQALAAMQAELNDDLRLYPDPNGERLKQAVAAHYGVQANQVFVGNGSDEVLAHIFHGLFQHDLPLLFPDVTYSFYPVYCGLYGIAHEKIALDERFRIRVEDYARPNGGIIFPNPNAPTGCLLPLDAIEAMLKASPDSVVVVDEAYVDFGGESAIALVDRYPNLLVTQTLSKSRSLAGLRVGLAVGHADLVEALERIKNSFNSYPLDRLAIAGAAAAFEDDAYFRRTCQAVIDSREALSASLQALGFEVLPSAANFVFARHPRHDAGQIASTLREQGVIVRHFKQARIDQFLRITIGSPEQNQALLDALHFLK” belongs “not soluble”; to “MSKIADDQNFNDEEENFAKLFKKELEKEETLEKGTIKEGLVVSINENDGYAMVSVGGKTEGRLALNEITDEKGQLLYQKNDPIIVHVSEKGEHPSVSYKKAISQQKIQAKIEELGENYENAIIEGKIVGKNKGGYIVESQGVEYFLSRSHSSLKNDANHIGKRVKACIIRVDKENHSINISRKRFFEVNDKRQLEVSKELLEATEPVLGVVRQITPFGIFVEAKGIEGLVHYSEISHKGPVNPEKYYKEGDEVYVKAIAYDAEKRRLSLSIKATIEDPWEEIQDKLKPGYAIKVVVSNIEHYGVFVDIGNDIEGFLHVSEISWDKNVSHPNNYLSVGQEIDVKIIDIDPKNRRLRVSLKQLTNRPFDVFESKHQVGDVLEGKVATLTDFGAFLNLGGVDGLLHNHDAFWDKDKKCKDHYKIGDVIKVKILKINKKDKKISLSAKHLVTSPTEEFAQKHKTDSVIQGKVVSIKDFGVFINADGIDVLIKNEDLNPLKKDEIKIGQEITCVVVAIEKSNNKVRASVHRLERKKEKEELQAFNTSDDKMTLGDILKEKLLEHHHHHH”, “soluble”; to “MSKISSVLIDLSGTIHIEEFAIPGAQTALELLRQHAKVKFVTNTTKESKRLLHQRLINCGFKVEKEEIFTSLTAARDLIVKNQYRPFFIVDDRAMEDFEGISTDDPNAVVIGLAPEKFNDTTLTHAFRLIKEKKASLIAINKGRYHQTNAGLCLGPGTYVAGLEYSAGVEATIVGKPNKLFFESALQSLNENVDFSSAVMIGDDVNDDALGAIKIGMRAILVKTGKFRDGDELKVKNVANSFVDAVNMIIENKVENG”, “not soluble”.

For the sequence “MSKKRGLSGEEKRTRMMEIFFETKDVFQLKDLEKLAPKEKGITAMSVKEVLQSLVDDGMVDCERIGTSNYYWAFPSKALHARKRKLEALNSQLSEGSQKHADLQKSIEKARVGRQETEERAMLAKELFSFRDQRQQLKAEVEKYRECDPQVVEEIREANKVAKEAANRWTDNIFAIKSWAKRKFGFEESKIDKNFGIPEDFDYIDMSKSRAEAAAGAPGIILRYLQEQNRPYSAQDVFGNLQKEHGLGKAAVVKALDQLAQEGKIKEKTYGKQKIYFADQNQFDTVSDADLHGLDASIVALTAKVQSLQQSCRHMEAELKELTSALTTPEMQKEIQELKKECAQYTERLKNIKAATNHVTPEEKEKVYRDRQKYCKEWRKRKRMTTELCDAILEGYPKSKKQFFEEVGIETDEDHNVLLPDP”, the “soluble on expression in E. coli” value was “soluble”. For the sequence “MSKLAELQAETREIIEDLLNDGSEPNALYIIEHHIAHHDFDLLEKIAVDAFKAGYEVSEAEEFKDDDGKPIFCFDIISEVELKAEIIDAQQKEILPLLEKHNGIYDGWGTYFEDPNADDDEYGDDGEFLDDEDEYGDDGEFFDDEDEEEPRVH”, the “soluble on expression in E. coli” value is on record as “not soluble”. As for “MSKLGKQDVYYFEGLDDILIAMMTTKDAVGTEPAFGEVVRLPIATKLGIKGNGTALEKWASSKMFRRVSRETKHEIALDHVGIPIAVMDEIKGLIAQSGVTFGKNTAREFPYFAFGFIGNIENGGKKAVWYPKTQLSNVIDEEYTTAEDETKIDDVTANFVSTGLTYNNVMYSSFDSNRDSASIELFEKFIAQPVYDEEQWKKLAGPSRGGGSELEHHHHHH”, the entry is “soluble”; as for “MSKLIITDNLEMLTEQGATRRRLLQAGLGACALLAMPAANAAYSRVYEKRVSLLNLHTGERVRTAYWERGKYIPEALRMIEKVLRDHRSGDIHRIDPRLLDLMQHLHHKTGNSKEFQVVSGYRSPATNAALSVQSHGVAKNSLHMQGKAIDIRLPGVPLHVLRRAAMSMHAGGVGYYPKSNFIHIDTGNVRYW”, “not soluble”; as for “MSKLLVVKAHPLTKEESRSVRALETFLASYRETNPSDEIEILDVYAPETNMPEIDEELLSAWGALRAGAAFETLSENQQQKVARFNELTDQFLSADKVVIANPMWNLNVPTRLKAWVDTINVAGKTFQYTAEGPKPLTSGKKALHIQSNGGFYEGKDFASQYIKAILNFIGVDQVDGLFIEGIDHFPDRAEELLNTAMTKATEYGKTF”, “soluble”.

With “MSKMLYRVELIITNKEGVRDPEGETIQRYVVSRFSDKIIETRAGKYLVFRVNSSSQQEATELVKKLADEMRLYNPIVHKIEIRANRIEDSSN”, the “soluble on expression in E. coli” value is recorded as “soluble”. To “MSKNKNDYEHMLFYFAYKTFITTADEIIEQYGMSRQHHRFLFFINKLPGITIKELLITLEISKQGSHATLRKLKEEGLIVEQTSKQDRRVKKLFTTEAGDDLIGKLNQAQDELIQQTLQKVGHDWYAMMEELANYREGFKTIEHLKED” belongs “soluble”; to “MSKPDDPAYHWNGAELDLDAYLARIGFAGERAPTLATLRELVYRHTTAIPFENLEAVLGRPVRLDLATLQDKLVHSRRGGYCYENAGLFAAALERLGFGVTGHTGRVTMGAGGLRPATHALLRVTTADDDRVWMCDVGFGRGPLRPYELRPQPDEFTLGDWRFRLERRTGELGTDLWVLHQFGRDGWVDRYTFTTAPQYRIDFEVGNHFVSTSPRSPFTTRPFLQRFHSDRHHVLDGLTLITERPDGSADIRALTPGELPEVINELFDIELPGPDLDALTTGSWLERVAAGTP”, “soluble”. As for “MSKTDVKKSREASGILTLQVNLRERRNFLNLMQNKLFSWKIRFSAIKGKCSQKSKYFRRSRSEDCYVEADLKILSRTRRSRKLPGTVPDFLGKQLIGISSSVVSRVSRSCR”, the entry is “soluble”; as for “MSKVRVAGFSVSVDGFGAGPEQSLNDPLGKRGPEMFQWFFHTRTFRAMMGKDDGSTGIDEDYASRAMANFGAFILGRNMFGPIRGEWPDDAWKGWWGPNPPYHAPTYVLTHYPREPLVMEGGTTFHFVTGGIHQALDQAKAAAGDKDVKIGGGVATVRQYLQAGLIDELHFAVSPVVLGKGEAMFAGIDLPALDFRVTEHAASEKATHIVLAKLEHHHHHH”, “not soluble”; as for “MSLAADKVVVMLNWYVYGEHAPFYYGKAKGIYAAEGIDLEIQEGRGSAATTQAVAAKTADFGYVDVPTMMRAAIKGAPVVATGVLLQTSPMSAMGFVDKNIRKPEDIKGKTVAITPADSMTQIWPLFLKKTGLKESDFQTVAGDGQTKLNAVINGQADLLLGYVMDQSMKIKDATGKDVYPIKFADYGINMVSSGIIANSDYVKANADLVRRFMSATTKAVEAAEKEPKAAAQSILDANPKGGKIDTLTQGFELTIPLYRTAATKSKRPFQVTEQNMTETVNLLVEYGGLDAKAKDNPKAFYTNDYLPKSGEGHHHHHH”, “soluble”. To “MSLAADTLRIKQLQRCGDLFSDSQQRWCLCAEGLRANLPTVWLGGTRLSEADIERQGDRLTLKLARQAQRSAPLWLADGGRTSNPVWLTRQRSHVIAAGPDEVAKNMDGLTTYVDLVSLLIEEKYDGLGEARRIAGKYGAQVVGAIPPLNVYQLRLPVEDLVQRDAMVLRMGSEVSVDAVIVEESAPERGEEGNGRGTRAIDQADEWAANRFMDALYFYRRRIAASGLPVKPVRVGVIEREVDFDAPGFSHYRGGCEQGQTCLYARDGNRPASHGSHVAGILAAQGEGFLPGLGKHSPGFEVMVERNSDAGITANIAASVNLVEDGVRVLNWSWGIHRVGARDVNGDEVDSLVRSGLAMSGYEELLEEFFLWLRKEHPDVVVVNSAGNGASWSGTDEYRLPSSFITEQLLVVGGHQRSGKATAVEAHDHVRKRHSSNIDMRVDVSAAACIRPVSAEAAHCGTSYATPLVTATVATMLSINPALTPEQVRMLLRRSALTLGAEQDFEAMDAEDLTAPILPSERGGRLNDPDLGRSARLDMQRALDLAVQSLERVREGHHHHHH” belongs “not soluble”; to “MSLAALDPITPAGGGTWRFPANEPLRLDSGGVIEGLEIAYQTYGQLNADKSNAVLICHALTGDQHVASPHPTTGKPGWWQRLVGPGKPLDPARHFIICSNVIGGCMGSTGPASINPATGKTYGLSFPVITIADMVRAQAMLVSALGVETLFAVVGGSMGGMQVQQWAVDYPERMFSAVVLASASRHSAQNIAFHEVGRQAIMADPDWRGGAYAEHGVRPEKGLAVARMAAHITYLSEPALQRKFGRELQRDGLSWGFDADFQVESYLRHQGSSFVDRFDANSYLYITRAMDYFDIAASHGGVLAKAFTRARNVRFCVLSFSSDWLYPTAENRHLVRALTAAGARAAFAEIESDKGHDAFLLDEPVMDAALEGFLASAERDRGLVEGHHHHHH”, “soluble”; to “MSLACGEFSLIARYFDRVRSSRLDVELGIGDDCALLNIPEKQTLAISTDTLVAGNHFLPDIDPADLAYKALAVNLSDLAAMGADPAWLTLALTLPDVDEAWLESFSDSLFDLLNYYDMQLIGGDTTRGPLSMTLGIHGFVPMGRALTRSGAKPGDWIYVTGTPGDSAAGLAILQNRLQVADAKDADYLIKRHLRPSPRILQGQALRDLANSAIDLSDGLISDLGHIVKASDCGARIDLALLPFSDALSRHVEPEQALRWALSGGEDYELCFTVPELNRGALDVALGHLGVPFTCIGQMTADIEGLCFIRDGEPVTLDWKGYDHFATPEGGSHHHHHH”, “soluble”. Take “MSLADISVIQSLPLSGSQAVTGRALNAGARLYFDWLNLNGGINGETIRLVARDDEQKIEQTVRNVRDMARVDNPVALLTVVGTANVEALMREGVLAEARLPLVGPATGASSMTTDPLVFPIKASYQQEIDKMITALVTIGVTRIGVLYQEDALGKEAITGVERTLKAHALAITAMASYPRNTANVGPAVDKLLAADVQAIFLGATAEPAAQFVRQYRARGGEAQLLGLSSIDPGILQKVAGLDAVRGYSLALVMPNPGKSVNPVIREFNRARAAVGAKDVDLSFRAVEGFVAAKVLAEAIRRAGPKPTREQVRHALTELRDYDVGGGFTVDFTDRSRPGSHYIELGVVGPNGLVIQEGHHHHHH”: the “soluble on expression in E. coli” value was “soluble”.

Values taken from the DeepSol protein solubility set.
